Results taken from publication PMC9929470.

Key:
[1] = biological target: recombinant N2 (neuraminidase subtype 2 head domain of A/Kansas/14/2017 (H3N2) fused to the tetrabrachion tetramerization domain) (not stated | influenza A virus A/Kansas/14/2017 (H3N2)) (UniProt Q54436); experiment: SEC
[2] = biological target: recombinant N2 (neuraminidase subtype 2 head domain of A/Kansas/14/2017 (H3N2) fused to the tetrabrachion tetramerization domain) (not stated | influenza A virus A/Kansas/14/2017 (H3N2)) (UniProt Q54436); experiment: SEC-MALS; AdvanceBio SEC 300-Å column connected to a DAWN8 detector, 0.3 ml/min, PBS pH 7.2
[3] = biological target: recombinant N1 (neuraminidase subtype 1 head domain of A/Brisbane/02/2018 (H1N1) fused to the tetrabrachion tetramerization domain) (not stated | influenza A virus A/Brisbane/02/2018 (H1N1)) (UniProt Q54436); experiment: SEC
[4] = biological target: recombinant N1 (neuraminidase subtype 1 head domain of A/Brisbane/02/2018 (H1N1) fused to the tetrabrachion tetramerization domain) (not stated | influenza A virus A/Brisbane/02/2018 (H1N1)) (UniProt Q54436); experiment: SEC-MALS; AdvanceBio SEC 300-Å column connected to a DAWN8 detector, 0.3 ml/min, PBS pH 7.2

Substance: recombinant N2 (neuraminidase subtype 2 head domain of A/Kansas/14/2017 (H3N2) fused to the tetrabrachion tetramerization domain) (from UniProt Q54436 1238-1286) (enzyme)
- stoichiometry N [1]: 4
- stoichiometry N [2]: 4

Substance: recombinant N1 (neuraminidase subtype 1 head domain of A/Brisbane/02/2018 (H1N1) fused to the tetrabrachion tetramerization domain) (from UniProt Q54436 1238-1286) (enzyme)
- stoichiometry N [3]: 4
- stoichiometry N [4]: 4
